Measured values: the supplement of paper PMC10899765

How the values were obtained:
Settings in all cases: 20 nM; 72 h
MCF10A [1] = test: one-nucleolus phenotype percent effect (relative to siNT 0% and siNOL11 100%); higher = more cells with one nucleolus (ribosome biogenesis inhibition)
Procedure: (§1)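 After 72 h, cells were fixed and stained with Hoechst and anti-fibrillarin, and nucleoli per nucleus were counted with CellProfiler. Values are plate-adjusted percent effect for the one-nucleolus and 5+ nucleoli phenotypes, normalised to siNT (0%) and to the positive controls siNOL11 or siKIF11 (100%), as the mean of biological triplicates. Percent viability is the nuclei count relative to siNT.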

MCF10A [2] = test: 5+ nucleoli phenotype percent effect (relative to siNT 0% and siKIF11 100%); higher = more cells with five or more nucleoli
Procedure: as §1

MCF10A [3] = test: percent viability (nuclei count relative to siNT); higher = more viable cells
Procedure: as §1

Sequence	one-nucleolus phenotype percent effect (MCF10A [1])	5+ nucleoli phenotype percent effect (MCF10A [2])	percent viability (MCF10A [3])
AUUGGGAACAUUUUGCAUGUAU [hsa-miR-450a-1-3p]	-29.7%	24.1%	95%
AAAAGUAACUAUGGUUUUUGCC [hsa-miR-548bb-5p]	-28.8%	30.8%	138%
CCUCACCCAGCUCUCUGGCCCUCU [hsa-miR-6862-3p]	-26.5%	15.4%	72%
CAGUUAUCACAGUGCUGAUGCU [hsa-miR-101-5p]	8.44%	-23.5%	33.9%
UCACAAAUCUAUAAUAUGCAGG [hsa-miR-4719]	-19.7%	40.1%	149%
UCCCACGUUGUGGCCCAGCAG [hsa-miR-662]	-20.4%	35.3%	128%
AUAACAUUGUAAAGCGCUUCUUUCG [hsa-miR-3143]	-38.3%	49%	68.7%
AGCCUGUGCUUGUCCCUGCAG [hsa-miR-6811-3p]	24.6%	-10.2%	11.8%
UUAGUCUCAUGAUCAGACACA [hsa-miR-4474-5p]	-23.4%	35.6%	29.8%
UGUAAACAUCCUUGACUGGAAG [hsa-miR-30e-5p]	0.878%	36.3%	61.8%
AAGCGACCAUGAUGUAACUUCA [hsa-miR-4670-5p]	14%	-4.37%	49.2%
AAGAUGUGGAAAAAUUGGAAUC [hsa-miR-576-3p]	17.9%	-7.01%	48%
CUUGGCACCUAGCAAGCACUCA [hsa-miR-1271-5p]	-2.87%	68.8%	91.1%
UUCAUUUGCCUCCCAGCCUACA [hsa-miR-664b-3p]	39.1%	-29.2%	28.7%
UAUCCAGCUUGUUACUAUAUGC [hsa-miR-5586-5p]	-0.119%	7.77%	47.2%
UACCCUGUAGAACCGAAUUUGUG [hsa-miR-10b-5p]	25.8%	-26.1%	30.6%
UCUUGAAGUCAGAACCCGCAA [hsa-miR-4635]	19.8%	-29.8%	45.8%
CUAGUGAGGGACAGAACCAGGAUUC [hsa-miR-921]	31.9%	-15.6%	48.8%
CAACCUCGAGGAUCUCCCCAGC [hsa-miR-3150b-5p]	-5.6%	20.8%	48.1%
CACUGUUUCCUUUCUGAGUGGA [hsa-miR-892c-3p]	1.69%	-29.1%	93.2%
AAAGUGCUUCUCUUUGGUGGGU [hsa-miR-520d-3p]	-16.1%	58.4%	74.3%
CUCCUCUGUUUUCUUUCCUAG [hsa-miR-6780a-3p]	25.3%	-34.9%	34.4%
ACUGGACUUGGAGUCAGAAGAGUGG [hsa-miR-378c]	-8.35%	-4.56%	22.4%
